Laboratory results reported in US20260242478A1 (published 2026).
Where no end group is shown, it is not given here.

B1: Phage-524 (peptide)
peptide: YCAGHLPQYMSKCL
notes: tested as crude clonal phage supernatant
B2: Phage-519 (peptide)
peptide: YCEGHTAEYMQKCL
notes: as for B1
B3: Phage-513 (peptide)
peptide: YCDGHAPEYMMKCL
notes: as for B1
B4: Phage-515 (peptide)
peptide: YCEGHAAEYMAKCL
notes: as for B1
B5: Phage-522 (peptide)
peptide: YCDGHSWEYIGKCL
notes: as for B1
B6: Phage-523 (peptide)
peptide: YCDGHLPEYQEKCL
notes: as for B1
B7: Phage-514 (peptide)
peptide: YCEGHLPEYMWKCL
notes: as for B1
B8: Phage-517 (peptide)
peptide: YCAGHMPEYMAKCL
notes: as for B1
B9: Phage-525 (peptide)
peptide: YCDGHLPIYMSQCL
notes: as for B1
B10: Phage-516 (peptide)
peptide: YCDGHLPEYLAKCL
notes: as for B1
B11: Phage-521 (peptide)
peptide: YCDGHLPEYMAKCL
notes: as for B1
B12: Phage-520 (peptide)
peptide: YCMGHAPEYMAKCL
notes: as for B1
B13: Phage-518 (peptide)
peptide: YCDGHLPEYMSKCM
notes: as for B1
B14: Phage-501 (peptide, not shown: large carriers)
peptide: YCAGHAPEYMEKCL
notes: Clonal phage supernatant of the Peptide-87 optimisation library
B15: Phage-504 (peptide, not shown: large carriers)
peptide: YCEGHLPQYMWKCL
notes: as for B14
B16: Phage-512 (peptide, not shown: large carriers)
peptide: YCEGHLPQYMQKCL
modifications: cysteine pairing not given here; also: displayed on phage as fusion to pIII, linker, pIII sequence and order not given here
notes: as for B14
B17: Phage-503 (peptide, not shown: large carriers)
peptide: YCDGHLPEYMEKCL
notes: as for B14
B18: Phage-500 (peptide, not shown: large carriers)
peptide: YCDGHLPQYMEKCL
notes: as for B14
B19: Phage-505 (peptide, not shown: large carriers)
peptide: YCDGHLPEYMNKCL
notes: as for B14
B20: Phage-508 (peptide, not shown: large carriers)
peptide: YCAGHLPQYMAKCL
notes: as for B14
B21: Phage-506 (peptide, not shown: large carriers)
peptide: YCAGHLPEYMDKCL
notes: as for B14
B22: Phage-509 (peptide, not shown: large carriers)
peptide: YCEGHLPEYMAKCL
modifications: cysteine pairing not given here; also: displayed on phage as fusion to pIII, linker, pIII sequence and order not given here
notes: as for B14
B23: Phage-510 (peptide, not shown: large carriers)
peptide: YCEGHLPEYMFKCL
modifications: cysteine pairing not given here; also: displayed on phage as fusion to pIII, linker, pIII sequence and order not given here
notes: as for B14
B24: Phage-511 (peptide, not shown: large carriers)
peptide: YCDGHLPQYMAQCL
modifications: cysteine pairing not given here; also: displayed on phage as fusion to pIII, linker, pIII sequence and order not given here
notes: as for B14
B25: Phage-502 (peptide, not shown: large carriers)
peptide: YCDGHSPEYMWKCL
notes: as for B14
B26: Phage-507 (peptide, not shown: large carriers)
peptide: YCDGHSAEHMAKCL
notes: as for B14

Molecular target: T1, Anti-CD28 Fab (SEQ ID NOs: 696, 697)
T1 construct: Biotinylated and captured on neutravidin coated plates in the phage ELISA
Test: phage ELISA on captured anti-CD28 Fab; competitor CD28 antigen pre-incubated in the wells;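 note: clonal phage supernatants added to wells preloaded with CD28 antigen in blocking buffer, control wells buffer only, bound phage read via HRP-linked anti-M13 antibody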
T1 sequence (VH, as listed by the source, chain 1 of 2): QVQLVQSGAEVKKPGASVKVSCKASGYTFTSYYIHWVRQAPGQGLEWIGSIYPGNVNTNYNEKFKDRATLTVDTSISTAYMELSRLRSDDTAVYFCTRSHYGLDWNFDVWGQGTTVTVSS
T1 sequence (VL, as listed by the source, chain 2 of 2): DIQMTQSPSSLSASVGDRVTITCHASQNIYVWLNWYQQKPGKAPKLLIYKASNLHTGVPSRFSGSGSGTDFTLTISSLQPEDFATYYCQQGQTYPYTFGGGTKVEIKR
Experimental: (§1) After panning, phage infected bacteria were plated out and colonies picked into 96 well blocks. Clonal phage was then amplified and separated from bacterial cells via centrifugation.
(§2) Clonal phage were harvested as crude supematants and screened via standard ELISAs. […] Prior to the addition of clonal phage, wells were incubated with blocking buffer and CD28 antigen or blocking buffer alone. Without washing or aspirating, clonal phage supematants were then added to the wells and incubated for a short time. Wells were then washed followed by detection of bound phage using a horse radish conjugated anti-M13 antibody. Clonal phage of interest were then sent for sequence analysis.

Row | Binder | Phage binding ELISA, Anti-CD28 Fab signal in the presence of CD28
1 | B1 | 0.11
2 | B2 | 0.08
3 | B3 | 0.09
4 | B4 | 0.08
5 | B5 | 0.07
6 | B6 | 0.1
7 | B7 | 0.08
8 | B8 | 0.11
9 | B9 | 0.12
10 | B10 | 0.11
11 | B11 | 0.13
12 | B12 | 0.09
13 | B13 | 0.14

Molecular target: T2, anti-CD28 Fab (SEQ ID NOs: 696, 697)
T2 construct: In the phage ELISA the Fab was biotinylated and captured on neutravidin coated plates
T2 sequence (VH, as listed by the source, chain 1 of 2): as the sequence (VH, as listed by the source, chain 1 of 2) above
T2 sequence (VL, as listed by the source, chain 2 of 2): as the sequence (VL, as listed by the source, chain 2 of 2) above
Test: phage ELISA; biotinylated anti-CD28 Fab on neutravidin plate, wells pre-incubated with CD28 antigen as competitor, anti-M13 HRP detection
Experimental: as §1, §2

Row | Binder | Phage binding ELISA, Anti-CD28 Fab signal in the presence of CD28
14 | YCEGHSQENIWKCL [Phage-485] | 0.07
15 | YCEGHAPEYIRKCL [Phage-483] | 0.08
16 | YCEGHAPEYIWKCL [Phage-484] | 0.07

Molecular target: T3, Anti-CD28 Fab (SEQ ID NOs: 696, 697)
T3 construct: Biotinylated and captured on neutravidin coated plates in the phage ELISA
Test: phage ELISA; biotinylated anti-CD28 Fab on neutravidin plates, bound phage detected with anti-M13 HRP
T3 sequence (VH, as listed by the source, chain 1 of 2): as the sequence (VH, as listed by the source, chain 1 of 2) above
T3 sequence (VL, as listed by the source, chain 2 of 2): as the sequence (VL, as listed by the source, chain 2 of 2) above
Experimental: as §1, §2

Row | Binder | Phage binding ELISA, Anti-CD28 Fab signal
17 | YCAGHLPEYMPHCI [Phage-543] | 2.31
18 | YCEGHSEEYISKCL [Phage-551] | 2.3
19 | YCAGHSPEHMWKCL [Phage-550] | 2.3
20 | YCDGHTLEYMWKCL [Phage-547] | 2.31
21 | YCDGHLDEYMAKCL [Phage-546] | 2.31
22 | YCDGHSPQYIEKCL [Phage-544] | 2.31
23 | YCEGHTMEYMWKCL [Phage-542] | 2.31
24 | YCDGHSPEYILKCL [Phage-545] | 2.31
25 | YCDGHEPQYMLKCL [Phage-540] | 2.32
26 | YCDGHAPEYMAKCL [Phage-549] | 2.3
27 | YCEGHLPLYMWKCL [Phage-548] | 2.3
28 | YCEGHSPEYMSKCL [Phage-541] | 2.31

Molecular target: T2, anti-CD28 Fab (SEQ ID NOs: 696, 697)
Test: phage ELISA; biotinylated anti-CD28 Fab on neutravidin plate, clonal phage supernatant, anti-M13 HRP detection;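 note: crude supernatants of single phage clones picked after panning were screened for binding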

Row | Binder | Phage binding ELISA, Anti-CD28 Fab (SEQ ID NOs: 696, 697) signal
29 | YCEGHSQENIWKCL [Phage-485] | 1.41
30 | YCEGHAPEYIRKCL [Phage-483] | 1.63
31 | YCEGHAPEYIWKCL [Phage-484] | 1.63

Molecular target: T3, Anti-CD28 Fab (SEQ ID NOs: 696, 697)
Test: phage ELISA on anti-CD28 Fab plates; competitor CD28 antigen pre-incubated in the wells
Experimental: as §1, §2

Row | Binder | Phage binding ELISA, Anti-CD28 Fab signal in the presence of CD28
32 | YCAGHLPEYMPHCI [Phage-543] | 0.09
33 | YCEGHSEEYISKCL [Phage-551] | 0.08
34 | YCAGHSPEHMWKCL [Phage-550] | 0.06
35 | YCDGHTLEYMWKCL [Phage-547] | 0.13
36 | YCDGHLDEYMAKCL [Phage-546] | 0.08
37 | YCDGHSPQYIEKCL [Phage-544] | 0.07
38 | YCEGHTMEYMWKCL [Phage-542] | 0.07
39 | YCDGHSPEYILKCL [Phage-545] | 0.09
40 | YCDGHEPQYMLKCL [Phage-540] | 0.12
41 | YCDGHAPEYMAKCL [Phage-549] | 0.09
42 | YCEGHLPLYMWKCL [Phage-548] | 0.07
43 | YCEGHSPEYMSKCL [Phage-541] | 0.07

Molecular target: Anti-CD28 Fab (SEQ ID NOs: 696, 697)
Test: phage binding ELISA; biotinylated anti-CD28 Fab captured on neutravidin plate, clonal phage supernatant, anti-M13 HRP detection
Target sequence in this assay (VH, as listed by the source, chain 1 of 2): as the sequence (VH, as listed by the source, chain 1 of 2) above
Target sequence in this assay (VL, as listed by the source, chain 2 of 2): as the sequence (VL, as listed by the source, chain 2 of 2) above
Experimental: as §1, §2

Row | Binder | Anti-CD28 Fab signal (phage binding ELISA)
44 | B14 | 2.45
45 | B15 | 2.44
46 | B16 | 2.39
47 | B17 | 2.44
48 | B18 | 2.47
49 | B19 | 2.43
50 | B20 | 2.41
51 | B21 | 2.42
52 | B22 | 2.41
53 | B23 | 2.4
54 | B24 | 2.4
55 | B25 | 2.44
56 | B26 | 2.41

Molecular target: T1, Anti-CD28 Fab (SEQ ID NOs: 696, 697)
Test: phage ELISA; biotinylated anti-CD28 Fab on neutravidin plate, clonal phage supernatant, anti-M13 HRP

Row | Binder | Phage binding ELISA, Anti-CD28 Fab signal
57 | B1 | 2.37
58 | B2 | 2.38
59 | B3 | 2.39
60 | B4 | 2.38
61 | B5 | 2.37
62 | B6 | 2.37
63 | B7 | 2.39
64 | B8 | 2.38
65 | B9 | 2.36
66 | B10 | 2.38
67 | B11 | 2.37
68 | B12 | 2.38
69 | B13 | 2.38

Molecular target: Anti-CD28 Fab (SEQ ID NOs: 696, 697)
Test: phage binding ELISA on captured anti-CD28 Fab pre-incubated with CD28 antigen as competitor
Target sequence in this assay (VH, as listed by the source, chain 1 of 2): as the sequence (VH, as listed by the source, chain 1 of 2) above
Target sequence in this assay (VL, as listed by the source, chain 2 of 2): as the sequence (VL, as listed by the source, chain 2 of 2) above
Experimental: as §1, §2

Row | Binder | Anti-CD28 Fab signal in the presence of CD28 (phage binding ELISA)
70 | B14 | 0.09
71 | B15 | 0.17
72 | B16 | 0.12
73 | B17 | 0.1
74 | B18 | 0.11
75 | B19 | 0.13
76 | B20 | 0.17
77 | B21 | 0.12
78 | B22 | 0.14
79 | B23 | 0.12
80 | B24 | 0.2
81 | B25 | 0.09
82 | B26 | 0.08
